Experimental findings from PMC2813881, “The Mrs1 Splicing Factor Binds the bI3 Group I Intron at Each of Two Tetraloop-Receptor Motifs” are described below.

The target of data set [1] is T1, Mrs1 (yeast, UniProt P07266 1-363).
T1 sequence: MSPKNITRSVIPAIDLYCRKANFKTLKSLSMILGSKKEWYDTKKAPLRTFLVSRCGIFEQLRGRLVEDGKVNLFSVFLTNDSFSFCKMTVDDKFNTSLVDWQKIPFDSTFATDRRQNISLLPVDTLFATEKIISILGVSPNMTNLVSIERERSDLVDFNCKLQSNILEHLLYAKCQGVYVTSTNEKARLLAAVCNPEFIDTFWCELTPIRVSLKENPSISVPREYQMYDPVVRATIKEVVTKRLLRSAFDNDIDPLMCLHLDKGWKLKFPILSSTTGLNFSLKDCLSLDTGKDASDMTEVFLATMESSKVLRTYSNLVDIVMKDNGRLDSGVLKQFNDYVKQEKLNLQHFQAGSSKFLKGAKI
The data set can be described thus: filter binding. The settings on record: RNA folded in its own buffer (composition not given), 30 min at 37 C with Mrs1, SL and B5 at 8 mM MgCl2.

Data set [2] deals with T1, Mrs1. The data set can be described thus: filter binding; 8 mM MgCl2; Hill ~1.5; Filter partitioning (nitrocellulose/Hybond), RNA folded in its own buffer (composition not given), 30 min at 37 C with Mrs1; SL and B5 at 8 mM MgCl2; RNA ~0.5 nM (large) or ~0.1 nM (SL, B5). The settings on record: protein: recombinant, chain copies: 2, label: internal 32P.

In the data set with Mrs1 [1] (Hill 2.0, Filter partitioning (nitrocellulose/Hybond)), RNase P specificity domain RNA came in with a K half of 230 nM. With Azoarcus group I intron RNA, the K half in the data set with Mrs1 [1] (Hill 1.8, Filter partitioning (nitrocellulose/Hybond)) turned out to be 3 nM. In the data set with Mrs1 [1] (Hill 2.2, Filter partitioning (nitrocellulose/Hybond)), bI3 group I intron RNA gave a K half of 9.7 nM.

B1: SL RNA (structured_RNA)
RNA: GGCUGACGAAGCGGUGCAGUGCUGUUUCAGCACUGCACCGCUUCGUCAGCC
Regarding B1, the “apparent K (half saturation)” value with Mrs1 [2] (hairpin, 24 bp) was determined as 1300 nM.

B2: B5 RNA (structured_RNA)
RNA: GGCUGACGAAGCGGUGCAGUGCUGUUUCAGCACUGCACCGAAAAACUUCGUCAGCC
For the molecule B2, the “apparent K (half saturation)” value with Mrs1 [2] (hairpin with 5 nt bulge) was ~500 nM.
